Results on one substance are retold here after PMC9020777.

Common to all, as to experiment: FRET or BRET
One assay deals with mCerulean3-BCL-2 (human) (UniProt P10415).
The target in assay [1] is mCerulean3-BCL-XL (human) (UniProt Q07817).
For a further assay, the target named is mCerulean3-BCL-W (mouse) (UniProt P70345).
Sequence of mCerulean3-BCL-W (mouse) (P70345 whole entry): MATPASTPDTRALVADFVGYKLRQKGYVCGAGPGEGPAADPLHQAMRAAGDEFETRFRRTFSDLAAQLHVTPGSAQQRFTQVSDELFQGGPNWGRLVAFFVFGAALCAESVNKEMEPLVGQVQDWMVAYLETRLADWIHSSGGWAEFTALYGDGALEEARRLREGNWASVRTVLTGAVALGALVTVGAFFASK

Sequence of mCerulean3-BCL-XL (human) (Q07817 whole entry): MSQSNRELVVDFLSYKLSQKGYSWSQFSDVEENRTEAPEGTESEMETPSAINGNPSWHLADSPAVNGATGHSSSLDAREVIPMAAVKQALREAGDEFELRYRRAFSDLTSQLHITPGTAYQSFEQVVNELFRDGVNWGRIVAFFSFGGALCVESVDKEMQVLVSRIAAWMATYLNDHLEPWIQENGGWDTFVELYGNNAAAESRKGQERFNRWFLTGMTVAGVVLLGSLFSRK
Sequence of mCerulean3-BCL-2 (human) (P10415 whole entry): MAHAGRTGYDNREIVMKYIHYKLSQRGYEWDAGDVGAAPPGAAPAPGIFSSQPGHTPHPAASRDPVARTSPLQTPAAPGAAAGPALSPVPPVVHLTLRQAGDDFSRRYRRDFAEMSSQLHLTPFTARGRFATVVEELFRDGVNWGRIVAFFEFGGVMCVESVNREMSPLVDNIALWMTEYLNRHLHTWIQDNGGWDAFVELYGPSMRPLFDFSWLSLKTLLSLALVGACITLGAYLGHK

Usually Kd stands for the constant that tells how readily two partners part at equilibrium. Read a high Kd as lower affinity. In the case of Venus-tBID (natural protein), the Kd with mCerulean3-BCL-2 (human) is 3 µM; in assay [1] it was 5 µM; with mCerulean3-BCL-W (mouse) it was 6 µM.
